The values that follow come from article PMC10107836 (Chembiochem, 2022).

The target of the experiment is extraviral domain of SARS-CoV-2 spike protein (aa 1-1213) (SARS-CoV-2) (UniProt P0DTC2). Kind of experiment: SPR.

Values joined by “and” are separate entries in the source; they are usually repeats but may differ in a detail not shown here. Equal entries are not always repeated.

Regarding “pineapple-derived jacalin-related lectin AcmJRL (natural protein)”, the Kd is 3.3 µM and 11.1 µM; the off-rate (koff) is 0.0034 s⁻¹; the on-rate constant (kon) was 1060 M⁻¹ s⁻¹.
